Test results published in PMC11398408 (bioRxiv, 2024).

Target: UBE2D1 (UniProt P51668 1-147)
Test: ITC

UBE2D1, sequence (P51668 whole entry): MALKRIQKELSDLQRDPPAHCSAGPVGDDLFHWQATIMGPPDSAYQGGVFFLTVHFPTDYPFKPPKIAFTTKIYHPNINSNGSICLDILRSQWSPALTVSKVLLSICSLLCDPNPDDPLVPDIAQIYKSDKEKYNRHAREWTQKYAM

stoichiometry N	Kd	Binder
~1	–	UBOX-UBL (designed binder) AEIDYSDAPDEFRDPIMDTLMTDPVRLPSGTVMDRSIILRHLLNSPTDPFNRQTLTESMLEPVPELKEQIQAWMREKQNSDHGGSSGGSSGGSSMWIQVRTMDGRQTHTVDSLSRLTKVEELRRKIQELFHVEPGLQRLFYRGKQMEDGHTLFDYEVRLNDTIQLLVRQS
~1	3.1 ± 0.7 µM	RING-UBL (designed binder) SLTAQQSSLIREDKSNAKLWNEVLASLKDRPASGSPFQLFLSKVEETFQCICCQELVFRPITTVCQHNVCKDCLDRSFRAQVFSCPACRYDLGRSYAMQVNQPLQTVLNQLFPGYGNGRGGSSGGSSGGSSGGSSMWIQVRTMDGRQTHTVDSLSRLTKVEELRRKIQELFHVEPGLQRLFYRGKQMEDGHTLFDYEVRLNDTIQLLVRQS
